# B1: Uncharacterized protein C1322.02 (Schizosaccharomyces pombe (strain ATCC 38366 / 972)), O94542 (parent)
# chain: MIESKGETAPSLNLNDVNVEENDAAQSFAEKVQRFRYQMKVHAAPRQKTLHSFLKKDNANIHDFTKVEKPHIRSSKSKVSYNSITSRVTKYFEEKNNSVDQLHSESLTPLSFGHTIPKKKPLLMTASVSEDSRVRVSKRQFKSKVVHPEIAISIAKRHKPKFPLSDELMNVEPGFHHSNIGCQITPYLWISSFRTNVYYLIGNEGDLLSQQVPSISGELNMLRGVCTRIDDDNRYDIEQAGSCFGMSVFPTSDSGEESFTTLESDPIVNCEHDEKKVADNLLVPQVMCSSNISTFFRSPGGKKLYHYLWKNSNALRISSNDLLEILLKHGVYVSLDTLHSWLQERNVNFEK
# partner: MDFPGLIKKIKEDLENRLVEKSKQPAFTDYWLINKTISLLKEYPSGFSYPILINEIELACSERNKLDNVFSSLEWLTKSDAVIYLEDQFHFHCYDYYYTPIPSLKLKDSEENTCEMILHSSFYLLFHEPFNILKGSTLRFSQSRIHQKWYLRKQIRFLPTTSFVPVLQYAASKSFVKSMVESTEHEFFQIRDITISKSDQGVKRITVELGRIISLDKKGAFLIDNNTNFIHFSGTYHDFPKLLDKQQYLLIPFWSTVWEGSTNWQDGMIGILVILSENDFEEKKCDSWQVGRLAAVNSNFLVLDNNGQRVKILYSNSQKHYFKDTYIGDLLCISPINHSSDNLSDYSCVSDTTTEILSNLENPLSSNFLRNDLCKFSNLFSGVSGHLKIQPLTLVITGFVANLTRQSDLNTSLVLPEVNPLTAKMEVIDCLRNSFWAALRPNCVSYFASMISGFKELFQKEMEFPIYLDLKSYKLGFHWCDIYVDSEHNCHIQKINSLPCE
# B2: Uncharacterized protein C1322.02 (Schizosaccharomyces pombe (strain ATCC 38366 / 972)), O94542 (parent)
# chain: B1 chain
# partner: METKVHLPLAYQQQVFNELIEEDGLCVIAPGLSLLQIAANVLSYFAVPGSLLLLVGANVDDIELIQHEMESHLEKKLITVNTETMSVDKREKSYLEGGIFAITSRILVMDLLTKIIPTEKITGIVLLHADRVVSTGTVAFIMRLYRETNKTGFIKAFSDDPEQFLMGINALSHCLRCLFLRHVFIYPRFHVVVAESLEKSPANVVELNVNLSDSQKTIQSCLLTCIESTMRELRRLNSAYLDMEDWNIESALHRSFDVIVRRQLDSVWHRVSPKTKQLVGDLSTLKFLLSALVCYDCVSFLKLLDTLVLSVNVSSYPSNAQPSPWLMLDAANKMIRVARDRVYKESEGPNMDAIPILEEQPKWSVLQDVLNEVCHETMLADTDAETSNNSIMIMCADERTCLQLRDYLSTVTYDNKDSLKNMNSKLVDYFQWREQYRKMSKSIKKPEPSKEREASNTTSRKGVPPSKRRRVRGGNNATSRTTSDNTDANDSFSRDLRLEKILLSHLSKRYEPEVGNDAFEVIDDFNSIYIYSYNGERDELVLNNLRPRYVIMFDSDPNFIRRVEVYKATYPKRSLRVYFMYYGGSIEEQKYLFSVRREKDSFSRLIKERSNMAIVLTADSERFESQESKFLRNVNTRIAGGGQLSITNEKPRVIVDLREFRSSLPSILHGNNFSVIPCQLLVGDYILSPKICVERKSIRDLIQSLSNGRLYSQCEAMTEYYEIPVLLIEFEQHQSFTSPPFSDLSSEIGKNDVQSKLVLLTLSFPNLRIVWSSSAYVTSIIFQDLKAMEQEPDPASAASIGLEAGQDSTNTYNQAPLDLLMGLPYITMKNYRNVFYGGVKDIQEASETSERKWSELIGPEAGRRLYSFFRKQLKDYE
# Variants of: B1
# Conditions: with cdc24_schpo cdc24, O75004
row,effect of a mutation on the interaction,Variant
1,decreasing interaction strength,MIESKGETAPSLNLNDVNVEENDAAQSFAEKVQRFRYQMKVHAAPRQKTLHSFLKKDNANIHDFTKVEKPHIRSSKSKVSYNSITSRVTKYFEEKNNSVDQLHSESLTPLSFGHTIPKKKPLLMTASVSEDSRVRVSKRQFKSKVVHPEIAISIAKRHKPKFPLSDELMNVEPGFHHSNIGCQITPYLWISSFRTNVYYLIGNEGDLLSQQVPSISGELNMLRGVCTRIDDDNRYDIEQAGSCFGMSVFPTSDSGEESFTTLESDPIVNCEHDEKKVADNLLVPQVMCAANASTAARSPGGKKLYHYLWKNSNALRISSNDLLEILLKHGVYVSLDTLHSWLQERNVNFEK [S289A;S290A;I292A;F295A;F296A]

# Variants of: B2
# Conditions: with rad16_schpo rad16, P36617
row,effect of a mutation on the interaction,Variant
1,disrupting interaction strength,MIESKGETAPSLNLNDVNVEENDAAQSFAEKVQRFRYQMKVHAAPRQKTLHSFLKKDNANIHDFTKVEKPHIRSSKSKVSYNSITSRVTKYFEEKNNSVDQLHSESLTPLSFGHTIPKKKPLLMTASVSEDSRVRVSKRQFKSKVVHPEIAISIDKRHKPKFPLSDELMNVAPGFHHSNIGCQITPYLWISSFRTNVYYLIGNEGDLLSQQVPSISGELNMLRGVCTRIDDDNRYDIEQAGSCFGMSVFPTSDSGEESFTTLESDPIVNCEHDEKKVADNLLVPQVMCSSNISTFFRSPGGKKLYHYLWKNSNALRISSNDLLEILLKHGVYVSLDTLHSWLQERNVNFEK [A155D;E172A]

# — IntAct's records for PubMed 25203555
